The values that follow come from publication PMC5486051, “BrWRKY65, a WRKY Transcription Factor, Is Involved in Regulating Three Leaf Senescence-Associated Genes in Chinese Flowering Cabbage”.

Series [1] has as its target T1, GST-BrWRKY65 (Brassica rapa var. parachinensis …, UniProt A0ACM8RC22 1-261). Put plainly: EMSA; shift abolished dose-dependently by unlabeled self competitor (100x, 1000x); LightShift Chemiluminescent EMSA Kit; native polyacrylamide gel (Figure 5 legend; Methods says SDS-PAGE); buffer, salt, pH and temperature not stated. Particulars: protein: recombinant; tags: GST (N-terminal, pGEX-4T-1); label: 5' biotin. Background: A gel shift assay detects complexes by their altered migration in electrophoresis.

Series [2] concerns the target T1, GST-BrWRKY65. Put plainly: competition; unlabeled mutant, 100-1000x excess over N3; LightShift Chemiluminescent EMSA Kit; native polyacrylamide gel (Figure 5 legend; Methods says SDS-PAGE); buffer, salt, pH and temperature not stated. Particulars: protein: recombinant; tags: GST (N-terminal, pGEX-4T-1); label: unlabeled.
Series [3] concerns the target T1, GST-BrWRKY65. Put plainly: competition; unlabeled mutant, 100-1000x excess over N2; LightShift Chemiluminescent EMSA Kit; native polyacrylamide gel (Figure 5 legend; Methods says SDS-PAGE); buffer, salt, pH and temperature not stated. Particulars: protein: recombinant; tags: GST (N-terminal, pGEX-4T-1); label: unlabeled.
Series [4] deals with T1, GST-BrWRKY65. Put plainly: competition; unlabeled mutant, 100-1000x excess over N1; LightShift Chemiluminescent EMSA Kit; native polyacrylamide gel (Figure 5 legend; Methods says SDS-PAGE); buffer, salt, pH and temperature not stated. Particulars: protein: recombinant; tags: GST (N-terminal, pGEX-4T-1); label: unlabeled.

T1 sequence (A0ACM8RC22 entry or part of it): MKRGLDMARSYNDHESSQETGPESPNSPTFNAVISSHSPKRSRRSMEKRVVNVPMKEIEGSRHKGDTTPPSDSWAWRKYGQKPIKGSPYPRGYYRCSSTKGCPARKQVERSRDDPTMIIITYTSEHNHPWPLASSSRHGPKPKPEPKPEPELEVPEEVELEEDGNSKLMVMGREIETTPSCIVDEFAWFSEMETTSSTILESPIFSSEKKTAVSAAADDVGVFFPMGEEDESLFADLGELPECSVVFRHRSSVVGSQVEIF

B1: BrDIN1 promoter W-box probe (dsDNA)
DNA 1: CGAGAGACCTGATTAAGAACATCTGACTTCAATTAAACCAATCACACTAC
DNA 2: GTAGTGTGATTGGTTTAATTGAAGTCAGATGTTCTTAATCAGGTCTCTCG
As to B1, the binding result with GST-BrWRKY65 [1] was “binds”.

B2: BrDIN1 mutant W-box competitor (dsDNA)
DNA 1: CGAGAGACCTGATTAAGAACATAAAAAATCAATTAAACCAATCACACTAC
DNA 2: GTAGTGTGATTGGTTTAATTGATTTTTTATGTTCTTAATCAGGTCTCTCG
Consider B2, for which the binding result with GST-BrWRKY65 [2] is on record as “no binding”.

B3: BrSGR1 promoter W-box probe (dsDNA)
DNA 1: TTTCACTCGTATCGTAAGATTGTTGACTCCAACACGCAAACAACAAAAAC
DNA 2: GTTTTTGTTGTTTGCGTGTTGGAGTCAACAATCTTACGATACGAGTGAAA
For B3, the binding result in the series with GST-BrWRKY65 [1] is “binds”.

B4: BrSGR1 mutant W-box competitor (dsDNA)
DNA 1: TTTCACTCGTATCGTAAGATTGAAAAAACCAACACGCAAACAACAAAAAC
DNA 2: GTTTTTGTTGTTTGCGTGTTGGTTTTTTCAATCTTACGATACGAGTGAAA
B4: the binding result with GST-BrWRKY65 [3] was “no binding”.

B5: BrNYC1 promoter W-box probe (dsDNA)
DNA 1: GATCGCCAGATTGCAGTGACGGTTGACTTGAATAAAGAAAAATGAAAAAA
DNA 2: TTTTTTCATTTTTCTTTATTCAAGTCAACCGTCACTGCAATCTGGCGATC
For the molecule B5, the binding result with GST-BrWRKY65 [1] is reported as “binds”.

B6: BrNYC1 mutant W-box competitor (dsDNA)
DNA 1: GATCGCCAGATTGCAGTGACGGAAAAAATGAATAAAGAAAAATGAAAAAA
DNA 2: TTTTTTCATTTTTCTTTATTCATTTTTTCCGTCACTGCAATCTGGCGATC
Consider B6, for which the binding result in the series with GST-BrWRKY65 [4] is reported as “no binding”.
